The assay deals with HHARI full-length (residues 1-557) (UniProt Q9Y4X5). As to the kind of experiment: ITC; nanoITC, 25 °C, 50 mM NaCl, 10 mM Na2HPO4, 2 mM KH2PO4 pH 7.0; 200 μM UbcH7 proteins injected into 20 μM HHARI full length; 500 μM UbcH5b proteins into 50 μM HHARI full length.

Here are results for 1 substance from publication PMC5548887.

What is called Kd is a measure of binding affinity in units of concentration. A low value points to higher affinity.

Chain of HHARI full-length (residues 1-557) (Q9Y4X5 whole entry, the tested form may be a part): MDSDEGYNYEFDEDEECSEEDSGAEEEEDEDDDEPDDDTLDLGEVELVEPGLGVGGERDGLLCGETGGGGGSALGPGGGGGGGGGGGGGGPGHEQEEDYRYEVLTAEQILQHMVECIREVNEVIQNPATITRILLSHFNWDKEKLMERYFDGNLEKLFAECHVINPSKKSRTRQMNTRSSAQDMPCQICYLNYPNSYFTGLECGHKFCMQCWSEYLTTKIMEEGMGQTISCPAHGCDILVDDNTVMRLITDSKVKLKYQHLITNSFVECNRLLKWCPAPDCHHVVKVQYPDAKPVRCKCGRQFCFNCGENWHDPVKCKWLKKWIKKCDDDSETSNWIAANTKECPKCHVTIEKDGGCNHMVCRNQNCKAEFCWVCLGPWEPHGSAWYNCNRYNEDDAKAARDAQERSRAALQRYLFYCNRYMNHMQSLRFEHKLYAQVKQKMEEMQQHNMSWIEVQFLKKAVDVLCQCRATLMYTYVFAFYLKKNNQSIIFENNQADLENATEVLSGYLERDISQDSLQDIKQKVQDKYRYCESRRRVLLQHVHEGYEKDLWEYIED
Chain of UbcH5b wild type (P62837 whole entry): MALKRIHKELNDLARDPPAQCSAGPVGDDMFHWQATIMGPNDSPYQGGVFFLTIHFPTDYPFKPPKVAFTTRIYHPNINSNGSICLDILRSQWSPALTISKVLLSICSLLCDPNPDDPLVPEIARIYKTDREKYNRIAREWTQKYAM

For the substance “UbcH5b wild type (from UniProt P62837 1-147) (enzyme; other documents disagree on this pair)”, the Kd stood at 19.5 µM.
